Test results from paper PMC8225759, “A GH89 human α-N-acetylglucosaminidase (hNAGLU) homologue from gut microbe Bacteroides thetaiotaomicron capable of hydrolyzing heparosan oligosaccharides” (AMB Express, 2021).

Legend:
purified protein [1] = substrate: CC(=O)N[C@H]1[C@@H](O[C@H]2[C@H](O)[C@@H](O)[C@H](OCCCNC(=O)OCC3c4ccccc4-c4ccccc43)O[C@@H]2C(=O)O)O[C@H](CO)[C@@H](O)[C@@H]1O; experiment: purified protein; conditions: pH 5.0; 30.0 °C
purified protein [2] = substrate: CC(=O)N[C@H]1[C@@H](Oc2ccc3c(C)cc(=O)oc3c2)O[C@H](CO)[C@@H](O)[C@@H]1O; experiment: purified protein; conditions: pH 5.0; 30.0 °C

B1: (Bacteroides thetaiotaomicron VPI-5482) (protein)
chain: TGPPVLKEMCQRLFPRHAQSFLFELLTDSIDTDRFILESSQGKIRIKGNNRNSLAAGLNHYLKNYCHTHVSWYASETVEMPDVLPEIPQPVYIRSKCDNRFFLNYCTFGYTMPYWKWQDWERLIDWMALNGVTMPLAITGQESIWYKVWTDMGLSDEQVRSYFTGPAHLPWHRMSNVDFWQSPLPQSWLKDQEELQKRILEREREFDMTPVLPAFAGHVPAELKTIYPNAKIYQMSQWGGFDEKYRSHFIDPMDSLYSIIQRRFLEEQTKVYGTDHIYGIDPFNEVDSPDWSEDFLANVSSKIYESIHQVDSAAQWLQMTWMFFYDKKKWTQPRIRSFLKAVPDNKLILLDYYCDHTEIWRNTEKYYGNPYIWCYLGNFGGNTMIAGNLNDIDFKIKRLFKEGGDNVYGLGATLEGFDVNPLMYEFVFDQAWDYPVTTDQWITNWSMCRGGNQDANIIKAWRALHQKIYTEHATCGQSVLMNARPRLTGTKSWNTNPGIHYANNDLWQIWKELLKARNINNSDFRFDVINIGRQVLGNLFSEYRDQFTACYNRKDTTGMREWSTRMDNLLLDVDRLLSCDATLSIGKWLQDARNCGATVSEKDYYEENARCILTVWGQQDTQLNDYANRGWGGLTRSFYRERWKRFTDGVIAAVSEDKPFDEDKFHQDITQFEYNWTLQKDSFPIVSEEDPIQIADSLILKYDTYFTKAQ
- Km (purified protein [1]): 2190 ± 160 µM
- kcat (purified protein [1]): 3.57 ± 0.09 s⁻¹
- kcat/Km (purified protein [1]): 1630 M⁻¹ s⁻¹
- Km (purified protein [2]): (4.6 ± 0.4) × 10^−3 mM
- kcat (purified protein [2]): 3.68 ± 0.07 s⁻¹
- kcat/Km (purified protein [2]): 800000 M⁻¹ s⁻¹
